Reference: PMC9321335, “Palmitic Acid-Conjugated Radiopharmaceutical for Integrin αvβ3-Targeted Radionuclide Therapy” (Pharmaceutics, 2022)
Where two headings read alike, the source gives them in different places.

Tests used:
in vivo = details: C57BL/6, mouse, total radioactivity; for tissue to tissue ratio at 1 h / tissue to tissue ratio at 4 h / tissue to tissue ratio at 12 h / tissue to tissue ratio at 24 h / tissue to tissue ratio at 72 h: Tumor-to-tissue ratio
Description: Mice bearing MC38 xenografts were randomly divided into 10 groups (n = 4). The mice in five groups were administered 0.74 MBq/20 µCi of ^177Lu-Palm-3PRGD2 and sacrificed at 1, 4, 12, 24, and 72 h p.i. The mice on one group was injected with 0.74 MBq/20 µCi of ^177Lu-Palm-3PRGD2 and 500 μg (242 nmol) 3PRGD2 as a blocking agent and sacrificed at 1 h p.i. […] Tumors and major organs were harvested, weighed and measured for radioactivity using a γ-counter. The organ uptake was calculated as the percentage injected activity per gram (%IA/g). The effective absorbed dose in humans estimated from mouse biodistribution data by using a dedicated software (OLINDA 1.0).

[1] = parameters: species or system C57BL/6 mice; details: mouse, in vivo
Description: Female KM mice were randomly divided into three groups (n = 5). […] Blood samples obtained from the canthus vein were collected at different time points post injection (p.i.), weighed, and evaluated using a γ-counter. The results are presented as the percentage injected activity per gram (%IA/g). Nonlinear regression (curve fit) followed by two phase decay was performed using GraphPad Prism version 9.0.0 for Windows, GraphPad Software, San Diego, CA, USA, www.graphpad.com (accessed on 22 May 2022). And then the half-lives values were calculated and determined. Blood clearance studies were performed in normal KM mice. […] Blood clearance studies were also performed in C57BL/6 mice.

[2] = parameters: species or system KM mice; details: mouse, in vivo, iv
Description: Female KM mice were randomly divided into three groups (n = 5). […] Blood samples obtained from the canthus vein were collected at different time points post injection (p.i.), weighed, and evaluated using a γ-counter. The results are presented as the percentage injected activity per gram (%IA/g). Nonlinear regression (curve fit) followed by two phase decay was performed using GraphPad Prism version 9.0.0 for Windows, GraphPad Software, San Diego, CA, USA, www.graphpad.com (accessed on 22 May 2022). And then the half-lives values were calculated and determined.

CCCCCCCCCCCCCCCC(=O)N[C@@H](CCC(=O)NCCCC[C@H](NC(=O)CN1CCN(CC(=O)O)CCN(CC(=O)O)CCN(CC(=O)O)CC1)C(=O)NCCOCCOCCOCCOCCC(=O)N[C@@H](CCC(=O)NCCOCCOCCOCCOCCC(=O)NCCCC[C@@H]1NC(=O)[C@@H](Cc2ccccc2)NC(=O)[C@H](CC(=O)O)NC(=O)CNC(=O)[C@H](CCCNC(=N)N)NC1=O)C(=O)NCCOCCOCCOCCOCCC(=O)NCCCC[C@@H]1NC(=O)[C@@H](Cc2ccccc2)NC(=O)[C@H](CC(=O)O)NC(=O)CNC(=O)[C@H](CCCNC(=N)N)NC1=O)C(=O)O [^177Lu-Palm-3PRGD2, [^177Lu]Lu-DOTA-Palm-3PRGD2, metal not drawn]
tissue uptake at 1 h (in vivo; 0.74 MBq, Blood uptake): 9.73 %ID/g
tissue uptake at 4 h (in vivo; 0.74 MBq, Blood uptake): 4.11 %ID/g
tissue uptake at 12 h (in vivo; 0.74 MBq, Blood uptake): 0.58 %ID/g
tissue uptake at 24 h (in vivo; 0.74 MBq, Blood uptake): 0.24 %ID/g
tissue uptake at 72 h (in vivo; 0.74 MBq, Blood uptake): 0.21 %ID/g
tissue uptake at 1 h (in vivo; 0.74 MBq, Bone uptake): 3.39 %ID/g
tissue uptake at 4 h (in vivo; 0.74 MBq, Bone uptake): 4.55 %ID/g
tissue uptake at 12 h (in vivo; 0.74 MBq, Bone uptake): 3.05 %ID/g
tissue uptake at 24 h (in vivo; 0.74 MBq, Bone uptake): 3.13 %ID/g
tissue uptake at 72 h (in vivo; 0.74 MBq, Bone uptake): 1.97 %ID/g
tissue uptake at 1 h (in vivo; 0.74 MBq, Brain uptake): 0.52 %ID/g
tissue uptake at 4 h (in vivo; 0.74 MBq, Brain uptake): 0.55 %ID/g
tissue uptake at 12 h (in vivo; 0.74 MBq, Brain uptake): 0.43 %ID/g
tissue uptake at 24 h (in vivo; 0.74 MBq, Brain uptake): 0.4 %ID/g
tissue uptake at 72 h (in vivo; 0.74 MBq, Brain uptake): 0.29 %ID/g
tissue uptake at 1 h (in vivo; 0.74 MBq, Heart uptake): 5.59 %ID/g
tissue uptake at 4 h (in vivo; 0.74 MBq, Heart uptake): 4.93 %ID/g
tissue uptake at 12 h (in vivo; 0.74 MBq, Heart uptake): 3.2 %ID/g
tissue uptake at 24 h (in vivo; 0.74 MBq, Heart uptake): 2.7 %ID/g
tissue uptake at 72 h (in vivo; 0.74 MBq, Heart uptake): 1.53 %ID/g
tissue uptake at 1 h (in vivo; 0.74 MBq, Intestinal uptake): 20.6 ± 1.97 %ID/g
tissue uptake at 72 h (in vivo; 0.74 MBq, Intestinal uptake): 12.8 ± 1.06 %ID/g
tissue uptake at 4 h (in vivo; 0.74 MBq, Intestine uptake): 17.6 %ID/g
tissue uptake at 12 h (in vivo; 0.74 MBq, Intestine uptake): 21.1 %ID/g
tissue uptake at 24 h (in vivo; 0.74 MBq, Intestine uptake): 17.4 %ID/g
tissue uptake at 1 h (in vivo; 0.74 MBq, Kidney uptake): 17.6 %ID/g
tissue uptake at 4 h (in vivo; 0.74 MBq, Kidney uptake): 20.1 ± 0.6 %ID/g
tissue uptake at 12 h (in vivo; 0.74 MBq, Kidney uptake): 19.3 %ID/g
tissue uptake at 24 h (in vivo; 0.74 MBq, Kidney uptake): 17 %ID/g
tissue uptake at 72 h (in vivo; 0.74 MBq, Kidney uptake): 10.6 ± 1.11 %ID/g
tissue uptake at 1 h (in vivo; 0.74 MBq, Liver uptake): 13.7 %ID/g
tissue uptake at 4 h (in vivo; 0.74 MBq, Liver uptake): 22.4 ± 2.55 %ID/g
tissue uptake at 12 h (in vivo; 0.74 MBq, Liver uptake): 22.1 %ID/g
tissue uptake at 24 h (in vivo; 0.74 MBq, Liver uptake): 13.7 %ID/g
tissue uptake at 72 h (in vivo; 0.74 MBq, Liver uptake): 6.73 ± 1.18 %ID/g
tissue uptake at 1 h (in vivo; 0.74 MBq, Lung uptake): 7.79 %ID/g
tissue uptake at 4 h (in vivo; 0.74 MBq, Lung uptake): 7.85 %ID/g
tissue uptake at 12 h (in vivo; 0.74 MBq, Lung uptake): 5.2 %ID/g
tissue uptake at 24 h (in vivo; 0.74 MBq, Lung uptake): 3.53 %ID/g
tissue uptake at 72 h (in vivo; 0.74 MBq, Lung uptake): 1.55 %ID/g
tissue uptake at 1 h (in vivo; 0.74 MBq, Muscle uptake): 1.96 %ID/g
tissue uptake at 4 h (in vivo; 0.74 MBq, Muscle uptake): 1.7 %ID/g
tissue uptake at 12 h (in vivo; 0.74 MBq, Muscle uptake): 1.24 %ID/g
tissue uptake at 24 h (in vivo; 0.74 MBq, Muscle uptake): 0.96 %ID/g
tissue uptake at 72 h (in vivo; 0.74 MBq, Muscle uptake): 0.7 %ID/g
tissue uptake at 1 h (in vivo; 0.74 MBq, Spleen uptake): 7.35 %ID/g
tissue uptake at 4 h (in vivo; 0.74 MBq, Spleen uptake): 12.4 %ID/g
tissue uptake at 12 h (in vivo; 0.74 MBq, Spleen uptake): 18.4 %ID/g
tissue uptake at 24 h (in vivo; 0.74 MBq, Spleen uptake): 14.9 %ID/g
tissue uptake at 72 h (in vivo; 0.74 MBq, Spleen uptake): 8.38 %ID/g
tissue uptake at 1 h (in vivo; 0.74 MBq, Stomach uptake): 5.73 %ID/g
tissue uptake at 4 h (in vivo; 0.74 MBq, Stomach uptake): 7.22 %ID/g
tissue uptake at 12 h (in vivo; 0.74 MBq, Stomach uptake): 6.07 %ID/g
tissue uptake at 24 h (in vivo; 0.74 MBq, Stomach uptake): 3.7 %ID/g
tissue uptake at 72 h (in vivo; 0.74 MBq, Stomach uptake): 1.38 %ID/g
tissue uptake at 1 h (in vivo; 0.74 MBq, Tumor uptake): 14.4 ± 2.53 %ID/g
tissue uptake at 4 h (in vivo; 0.74 MBq, Tumor uptake): 26.3 ± 6.34 %ID/g
tissue uptake at 12 h (in vivo; 0.74 MBq, Tumor uptake): 22.9 ± 4.2 %ID/g
tissue uptake at 24 h (in vivo; 0.74 MBq, Tumor uptake): 17.2 ± 3.3 %ID/g
tissue uptake at 72 h (in vivo; 0.74 MBq, Tumor uptake): 5.83 ± 1.27 %ID/g
tissue to tissue ratio at 1 h (in vivo; 0.74 MBq, Blood): 1.47
tissue to tissue ratio at 4 h (in vivo; 0.74 MBq, Blood): 7.28
tissue to tissue ratio at 12 h (in vivo; 0.74 MBq, Blood): 44.9
tissue to tissue ratio at 24 h (in vivo; 0.74 MBq, Blood): 73.2
tissue to tissue ratio at 72 h (in vivo; 0.74 MBq, Blood): 28.2
tissue to tissue ratio at 1 h (in vivo; 0.74 MBq, Bone): 4.3
tissue to tissue ratio at 4 h (in vivo; 0.74 MBq, Bone): 6.66
tissue to tissue ratio at 12 h (in vivo; 0.74 MBq, Bone): 7.14
tissue to tissue ratio at 24 h (in vivo; 0.74 MBq, Bone): 5.61
tissue to tissue ratio at 72 h (in vivo; 0.74 MBq, Bone): 2.96
tissue to tissue ratio at 1 h (in vivo; 0.74 MBq, Brain): 27.9
tissue to tissue ratio at 4 h (in vivo; 0.74 MBq, Brain): 55.3
tissue to tissue ratio at 12 h (in vivo; 0.74 MBq, Brain): 52.5
tissue to tissue ratio at 24 h (in vivo; 0.74 MBq, Brain): 42.5
tissue to tissue ratio at 72 h (in vivo; 0.74 MBq, Brain): 19.9
tissue to tissue ratio at 1 h (in vivo; 0.74 MBq, Heart): 2.59
tissue to tissue ratio at 4 h (in vivo; 0.74 MBq, Heart): 6.12
tissue to tissue ratio at 12 h (in vivo; 0.74 MBq, Heart): 7.11
tissue to tissue ratio at 24 h (in vivo; 0.74 MBq, Heart): 6.41
tissue to tissue ratio at 72 h (in vivo; 0.74 MBq, Heart): 3.86
tissue to tissue ratio at 1 h (in vivo; 0.74 MBq, Intestine): 0.77
tissue to tissue ratio at 4 h (in vivo; 0.74 MBq, Intestine): 1.62
tissue to tissue ratio at 12 h (in vivo; 0.74 MBq, Intestine): 1.06
tissue to tissue ratio at 24 h (in vivo; 0.74 MBq, Intestine): 1
tissue to tissue ratio at 72 h (in vivo; 0.74 MBq, Intestine): 0.45
tissue to tissue ratio at 1 h (in vivo; 0.74 MBq, Kidney): 0.82
tissue to tissue ratio at 4 h (in vivo; 0.74 MBq, Kidney): 1.42
tissue to tissue ratio at 12 h (in vivo; 0.74 MBq, Kidney): 1.2
tissue to tissue ratio at 24 h (in vivo; 0.74 MBq, Kidney): 1.01
tissue to tissue ratio at 72 h (in vivo; 0.74 MBq, Kidney): 0.56
tissue to tissue ratio at 1 h (in vivo; 0.74 MBq, Liver): 1.06
tissue to tissue ratio at 4 h (in vivo; 0.74 MBq, Liver): 1.02
tissue to tissue ratio at 12 h (in vivo; 0.74 MBq, Liver): 1.05
tissue to tissue ratio at 24 h (in vivo; 0.74 MBq, Liver): 1.3
tissue to tissue ratio at 72 h (in vivo; 0.74 MBq, Liver): 0.89
tissue to tissue ratio at 1 h (in vivo; 0.74 MBq, Lung): 1.87
tissue to tissue ratio at 4 h (in vivo; 0.74 MBq, Lung): 3.98
tissue to tissue ratio at 12 h (in vivo; 0.74 MBq, Lung): 3.86
tissue to tissue ratio at 24 h (in vivo; 0.74 MBq, Lung): 4.89
tissue to tissue ratio at 72 h (in vivo; 0.74 MBq, Lung): 3.78
tissue to tissue ratio at 1 h (in vivo; 0.74 MBq, Muscle): 7.33
tissue to tissue ratio at 4 h (in vivo; 0.74 MBq, Muscle): 17.5
tissue to tissue ratio at 12 h (in vivo; 0.74 MBq, Muscle): 18
tissue to tissue ratio at 24 h (in vivo; 0.74 MBq, Muscle): 17.9
tissue to tissue ratio at 72 h (in vivo; 0.74 MBq, Muscle): 8.33
tissue to tissue ratio at 1 h (in vivo; 0.74 MBq, Spleen): 2.02
tissue to tissue ratio at 4 h (in vivo; 0.74 MBq, Spleen): 2.56
tissue to tissue ratio at 12 h (in vivo; 0.74 MBq, Spleen): 1.4
tissue to tissue ratio at 24 h (in vivo; 0.74 MBq, Spleen): 1.35
tissue to tissue ratio at 72 h (in vivo; 0.74 MBq, Spleen): 0.7
tissue to tissue ratio at 1 h (in vivo; 0.74 MBq, Stomach): 2.57
tissue to tissue ratio at 4 h (in vivo; 0.74 MBq, Stomach): 4.06
tissue to tissue ratio at 12 h (in vivo; 0.74 MBq, Stomach): 3.84
tissue to tissue ratio at 24 h (in vivo; 0.74 MBq, Stomach): 4.74
tissue to tissue ratio at 72 h (in vivo; 0.74 MBq, Stomach): 4.25
tissue to tissue ratio at 1 h (in vivo; Blood): 0.25
tissue to tissue ratio at 1 h (in vivo; Bone): 2.51
tissue to tissue ratio at 1 h (in vivo; Brain): 14.8
tissue to tissue ratio at 1 h (in vivo; Heart): 1.32
tissue to tissue ratio at 1 h (in vivo; Intestine): 0.96
tissue to tissue ratio at 1 h (in vivo; Kidney): 0.69
tissue to tissue ratio at 1 h (in vivo; Liver): 1.19
tissue to tissue ratio at 1 h (in vivo; Lung): 0.71
tissue to tissue ratio at 1 h (in vivo; Muscle): 3.53
tissue to tissue ratio at 1 h (in vivo; Spleen): 1.61
tissue to tissue ratio at 1 h (in vivo; Stomach): 1.64
Half-Life (T1/2α) [1]: 2.08 min
Half-Life (T1/2β) [1]: 63.71 min
Half-Life (T1/2α) [2]: 4.49 min
Half-Life (T1/2β) [2]: 73.42 min
